# Measurements reported in the domain aggregation screens of Martell et al. (2025).
# Assay: soluble fraction after stress (log2 fold change); higher = more stays soluble; pooled small domains, quantitative proteomics
# Conditions: stress: pH 4
# How it was run: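 Pooled custom libraries of small protein domains were stressed at pH 4 and then measured by high-throughput quantitative proteomics. The fold change in the amount of each domain that stays soluble after the acid stress serves as a measure of aggregation propensity. Fold changes are given on a log2 scale, and higher values mean more of the domain stayed soluble.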
row,Sequence,soluble fraction (log2)
1,HMNSVTLEHIVYDFRVFNMLKGSGINDIDELIKAAEDGRLFKIIGSNLTYKRIKKSAAEFGVILPDKPG,-0.45
2,HMNSVYTPDPKELAKAIKIVTAAREAEQKGQGVIAVDGRMVDAPVVSQALRILELARLAGMEVSE,0.22
3,HMNTAIPIAIDQLRIGMYIQLGLNWMSHPFPVSSFRIASESQIEILRGLGLAEVRYVPAKSDPVP,-0.911
4,HMNTDEYEQKRGEILDAAQRLIYTKGYERMSIQDILDELKISKGAFYHYFDSKQSLLEALTARMMTE,-0.408
5,HMNTDIHRLLDEAFVRVDMTPDAQHLKEEIRANLVARVDELEASGVPSADAARRAIAELGDVRELL,-0.671
6,HMNTFDLSKLEEIILASRDKAMKTKEFTELDNLKNLFITAGLDVQMSKNGIKLIKGPKFNSSLLEDF,-0.741
7,HMNTIIIDILPKGLSIAGNQTEPKSLIQQLLMARRADPAQPILLRPAIAVPVQNVVELIDRLTAAGI,-0.412
8,HMNTISEADAKRIALERAGLTAADYVKVDYDQDDNEYEVEMRSGNTEYEVKISGSTGAVLEYDSETD,-0.0384
9,HMNTISTLEITTKKDIRILDESELLKSKSSKNNIFNYLLASGDFNLLKDKLNEIDEFSDEIISYQLN,-0.356
10,HMNTKQRTAVMRILKQSSDPVSADDVFAALKDEYPSLALSTVYRNLERFADESMVKKDVWSDGIVRYSLAD,-0.471
11,HMNTLGTNIAKLRESQKLTQEELGKLSGVSRVSIYKIETGQSTPRDTTLQNIAEALHTTPSALRS,0.22
12,HMNTLLYAPKVSPNPFTPNADGINDVVNISYKLLRVISAVPISVEVFDLSGRLIKTLYSGVDPLGEY,0.425
13,HMNTLPASVQPKKGRLYAVIQTKENGKSKPVWRSLGLPEGSNKSKVNKAFREVVKQFEEEYAERLAR,0.22
14,HMNTLPTDELMKYGIINEDLSFSKKLNADDIQKFLQGYTIVADNDKNRATFQLTENNTKLKVIFLER,-1.69
15,HMNTLRFPEGTPEKDRMSIILASYNSGIGHVNDARRLARLNGEDPNSWEVVARYLQLKAQPEYYESEAVK,-0.548
16,HMNTPAENFDKAVEKYKSTNSATEKDAAFKVIEDEWIKLSDEEKKERQDEYDSIFESEGDRV,0.22
17,HMNTQGWEIFEGRITTADTDLNPSGWIRIDGQRIFVISDAGFIDKGKEVSILSVDGNRVLVRK,-0.632
18,HMNTSMIEHMDKSTFIRFVFTNPVTHDQAVAKLMEKHMWFSTEEKAEAEIDKLLNKTNSLIESGGKLTW,0.22
19,HMNTTLQLDTILRLEKNAHLLENFVRAGFTDSELGKLTDADLLQIGVPKIGDRRRLLAALAERAH,-0.29
20,HMNTVSPAVSAQLRQELGGELNNANFQQLQQYLQAGQRDEAIVYLTSLGIESPRAVSIVNNAMDQIG,0.00938
21,HMNVDIVEITKNSSPNQISKVIDIGAIQIVEDLMSFGIMKAIDTPLEDSEIEQLLEKYNLIVDLIE,-2.19
22,HMNVDSIPGKSGIVTQGIDNLKAMGRVTVNGMEWTARSKDGSLIEEGKVVRVYGVEGVKLIVEED,-0.72
23,HMNVDSLPGEKAVVIKTIDNLRGTGQAVVNGLEWSAKSKDETIIDEGKVVRIVAVEGVKLVVEEE,-0.252

row,Sequence,soluble fraction (log2)
1,HMNVEALIGREGRVTDKIEANGYGRVKVDGDSWKAKSANGAEIRQNTDVRILSIDSVIITVEP,0.22
2,HMNVESLVGKQVIVSETIDNLKATGQVKVNGLEWTARAADETDIIPQGTEVTINEVSGVKLIVSR,0.0287
3,HMNVESMVGKQGKVVVEIDNISAKGMIKVDGMEWTARSVDGEIIPKDSLVAVVSVEGVKAMVRKAE,0.15
4,HMNVGKRLKSLREKYKFSLEEVAKKIKSSAGAISRYENNERKINSESLIRLSNLYNVSPEYILYG,0.391
5,HMNVKQALLELMQRKPELTGSAIARAIGYSPAVISQYLKDGYPGDVVKLTTLIGDFIRRIDEKERS,-0.48
6,HMNVKVYATIDGDNFKVSGLKPGSNVRVYSSNGSAVFEKKAGDSEMIIPAGAWTKGIYVISADDQSIKVT,-0.0844
7,HMNVLGQTAIVRSLRLDATFGEVLLADGGAGLIFKARTHGDETFKKGDRVVLLEYLKDQHAYRVISETDFL,-1.18
8,HMNVLLGISELSHATGVTPAQLRYWVSQGYIKNYGSNKKNKFSLETVFMVRSIKIFQNQGYTLSASAKRAA,-0.285
9,HMNVNFVQANLANLPNIQAIYQKGNEMLNDMKRGEAREIDEAYSRVDNGVGTEKDFKVLLSFRDKIIAAMQ,≥ 0.43
10,HMNVNSMIGKEGRVIEDIDNFNETGRIIVDGMEWTARAVNEQSITSGQKVVIREIQGVKAMVVPM,-0.299
11,HMNVNTNTILKSLMETYPDSTVFKKAEIVSIANSLGFKKSDYSPLTSTDNRTDVRGQYDLSAVIIPMRESN,-0.11
12,HMNVPYEMVTQNGEVFYKYKVQPGEGVFAVSRTFSVSVAEILRVNPEANKGLKNGQVLLIPVPKDMIA,-0.147
13,HMNVVGAKGRIIKISSSEEKMAVAEIEGHGEWNIRTNSEIELFVGKSVEVIEMKGNYLLVNQI,-1.81
14,HMNVWESVDLRQEQHEAKRRLILKQAALLFADRGFHETTIDQIAEALNVTKPTIYYYIESKEDLLYQVA,-0.369
15,HMNWQLITDPKELRELVQKTIADNEAGTSRLREGDMGPLEFLTGIIMKKTRGLADPTMVKALLKEELNI,0.0177
16,HMNYEFLEKIGFSSNEAKVYGTLIKHKVLNGYEIAKLSGVARSLVYEVINRLVAKGAVIRIDGEPNFYKP,-0.236
17,HMNYHDTLSYLMDAFGGADNLQKLLGVGPSALSNYRRREHLPLNQARKLSNIAPEFGFNLDPYTLKISVID,-0.588
18,HMNYKLESYLKKVDDQLNFIPVSDKADILSELKNTFYERLLNGQTEEEILDEMESPRELALSYMSES,-1.38
19,HMNYTYTVPEGIRYLRADKALALAFPDHSRTALQRAFDSGLVTLRGVAIKRDQSVTALDTLEFAMPDI,-0.675
20,HMNYVFVLNEHGVRQTSYVVGLHADTLEKTEKLAKQTYPTSTIISGDSEMQSQFISGKAYVNGEFVDP,-0.192
21,HMPAFWILAVLAGGRRHGYQIMREAALSSEGLVTLKPTTLYAALERLERDGAIQQDGEEIVDGRVRRYYRI,-0.305
22,HMPAKDAEFTAFVRSATPTLTRTAYLLTGDRETASDLVQEAFVRTYLAWRRVRPEEATAYTRRVLVN,0.22
23,HMPAPMISIQLNGEPRNVQPGISIAALVREIGLEPAKVAVERNREIVPRSTLGDVLIEAGDQLEIVHFVG,0.0156

row,Sequence,soluble fraction (log2)
1,HMPAQPEPYNNLARLYSAQGKLDQAASLLRAGLYTDPAYRALFDNLTRIYAEQAARSLSAALD,-0.879
2,HMPASDPNEKQILRFLTEHQVITRKETQALLDVSQSTAGRVLKAMVDNGQIKQLGGSRNTRYELPM,0.149
3,HMPASGISSEIIYDGILIEENLRQLKKDKAWLMDQLKKKGISSVSEVFLATLNKGGSLYIDKY,-0.0537
4,HMPASVSAIRKYLGGGSFKGVGPALAKRIVDAFGEYTIETIENDPKQLAKVKGVSEKMALEINTQ,0.112
5,HMPAYYQKEAVLDGRASVFAYERDPSSWYFKQLIPGTKKYRTKKIQGATTLEQAKSQALDIALGLRDEP,0.243
6,HMPDDHFIRGYVTAVLEQVLKVPSIQVEVERGVVILRGDLPGEERQELLDAVSRIHGVARVEYIPL,-0.281
7,HMPDLSGEEQQIVDILAQRGNLQINTLVVETDIPVHKMNAILFELEMKGVVRVLAGGMYQLL,-0.561
8,HMPDPLVEIRSAVHSNYAGMIAMLGADNRVYLGREEHYSYQDGQPGQYDNRDGSLLFVSDQPDIYYFL,-1.21
9,HMPEAITLRDLKTYSKQAASGYLDDHQLVLVEKEAHSEDVPEGQVIKQKPGAGASVKPGDKVEVTFSLGPE,0.22
10,HMPEKKKYGDFVSMTEEEYGKLVSEYGQEAAKRMVEILNNYKGATGKPYKSDYLAILNWVVKRIKEE,0.077
11,HMPELFLFNPDTASAATFQALGFSARQAGVLIHFREALGGRFGSVEQFSKSYVVDSATLERLRPYMVF,-0.029
12,HMPEMHIYTKEGKIHITHIDENEEIKIYNPLGQIIYTGSPQDIPVLEGKGLYIIYIGKSAVEVLES,-0.624
13,HMPENESPEEKHARFRRFAEGLMARLDENESVRDILPELKVWLDDRELDRDDQRLARNLMLTAGKRE,-0.0664
14,HMPEPLTARETEVLRLLSGGYSNREIAAAMFLAEGTIKNHVSAVLLKLGVRDRTRAVLRGLELGLIQ,-1.4
15,HMPEPPRVGETLAALRQDRALSLDELSRQAGVSKSMLSQIERNQANPTVAVVWRLANALGVPMAELLGA,-0.192
16,HMPGDIRKAAILLMSLPREQAAQVLARLDPKQVEAVTIEIARLGTVTPDEQEQALKEFSQANPA,-0.141
17,HMPGIDDAAVEHAERVLAQHIGPMARLLVRRTVPRAANLFDLHRRLGALIPESEPRTAFLSAVVT,0.0209
18,HMPGLSQAEAQSLLIAYLAQQGRTLELIPLGQSGDVWRFSGRESDGTVVSFFMVSRTDGTISEVPVPP,-0.992
19,HMPGRLSRREVEVIELTARGLPAAEMAVRLGISANTIEFHRRRIMQKLGVANAAEMVRRATELGW,-0.905
20,HMPGRVITVMVNGKRVDLPFREEPYIFVDLFRYMDFDVERARGRIQLAINGKKAGYTDIIREGDSIEI,-1.02
21,HMPGTAAQARQLKAWLKENGEKPGAALPALQKAQEIYGYVPREVQQLIADALHKPLTEIYGVSTFYSQFNL,-0.326
22,HMPGTPADQVAELQTKVGTETKTGDMITQDDVKLLQTALDPLAKMNDRIQAAKILESKGIVTSDGNLRT,0.0934
23,HMPIGENIKRLRIMHGLSQKELAQIAGVSDKAVSTWENGTKEPRMGAVQKITGYFGLKKSNLIEDNGL,0.0537
